Ten molecules from patent US20250206797A1 (BEIJING TUO JIE BIOPHARMACEUTICAL, published 2025) can be followed below.

Substitutions are numbered along the chain they refer to.

B1: fusion protein 2 (insulin analog 2 + L2 + IgG2 Fc1) (Fc fusion)
chain: FVNQHLCGSHLVEALYLVCGERGFHYGGGGGGSGGGGGIVEQCCHSICSLEQLENYCGGGGGQGGGGQGGGGQGGGGGECPPCPAPPVAGPSVFLFPPKPKDTLMISRTPEVTCVVVDVSHEDPEVQFNWYVDGVEVHNAKTKPREEQFNSTFRVVSVLTVVHQDWLNGKEYKCKVSNKGLPAPIEKTISKTKGQPREPQVYTLPPSREEMTKNQVSLTCLVKGFYPSDIAVEWESNGQPENNYKTTPPMLDSDGSFFLYSKLTVDKSRWQQGNVFSCSVMHEALHNHYTQKSLSLSPG
B2: fusion protein 6 (insulin analog 5 + L2 + IgG2 Fc1) (Fc fusion)
chain: FVNQHLCGEHLVEALYLVCGERGFHYGGGGGSGGGGGIVEQCCESICSLEQLENYCGGGGGQGGGGQGGGGQGGGGGECPPCPAPPVAGPSVFLFPPKPKDTLMISRTPEVTCVVVDVSHEDPEVQFNWYVDGVEVHNAKTKPREEQFNSTFRVVSVLTVVHQDWLNGKEYKCKVSNKGLPAPIEKTISKTKGQPREPQVYTLPPSREEMTKNQVSLTCLVKGFYPSDIAVEWESNGQPENNYKTTPPMLDSDGSFFLYSKLTVDKSRWQQGNVFSCSVMHEALHNHYTQKSLSLSPG
B3: fusion protein 7 (insulin analog 1 + L2 + IgG2 Fc1) (Fc fusion)
chain: FVNQHLCGEHLVEALYLVCGERGFHYGGGGGGSGGGGGIVEQCCESICSLEQLENYCGPGPQPGPQPGPQPGPQPGPQPGPQPGPQPGPQECPPCPAPPVAGPSVFLFPPKPKDTLMISRTPEVTCVVVDVSHEDPEVQFNWYVDGVEVHNAKTKPREEQFNSTFRVVSVLTVVHQDWLNGKEYKCKVSNKGLPAPIEKTISKTKGQPREPQVYTLPPSREEMTKNQVSLTCLVKGFYPSDIAVEWESNGQPENNYKTTPPMLDSDGSFFLYSKLTVDKSRWQQGNVFSCSVMHEALHNHYTQKSLSLSPG
B4: LY3209590 (Fc fusion)
chain: B1 chain with Y16E, H45T, I47T, E51D
B5: fusion protein 9 (insulin analog 6 + L2 + IgG2 Fc1) (Fc fusion)
chain: B1 chain with S9E, H45E, G58N, G59H
B6: fusion protein 3 (insulin analog 3 + L2 + IgG2 Fc1) (Fc fusion)
chain: B1 chain with Y16H, H45T, G58N
B7: fusion protein 4 (insulin analog 4 + L2 + IgG2 Fc1) (Fc fusion)
chain: B1 chain with N3K, S9E, H45E
B8: fusion protein 1 (insulin analog 1 + L2 + IgG2 Fc1) (Fc fusion)
chain: B1 chain with S9E, H45E
B9: fusion protein 8 (insulin analog 1 + L2 + IgG2 Fc1) (Fc fusion)
chain: B1 chain with S9E, H45E, Q63A, Q68A, Q73A
B10: fusion protein 5 (insulin analog 1 + L2 + IgG2 Fc1) (Fc fusion)
chain: FVNQHLCGEHLVEALYLVCGERGFHYGGGGGGSGGGGGIVEQCCESICSLEQLENYCGGGGGQGGGGQGGGGQGGGGQGGGGQECPPCPAPPVAGPSVFLFPPKPKDTLMISRTPEVTCVVVDVSHEDPEVQFNWYVDGVEVHNAKTKPREEQFNSTFRVVSVLTVVHQDWLNGKEYKCKVSNKGLPAPIEKTISKTKGQPREPQVYTLPPSREEMTKNQVSLTCLVKGFYPSDIAVEWESNGQPENNYKTTPPMLDSDGSFFLYSKLTVDKSRWQQGNVFSCSVMHEALHNHYTQKSLSLSPG

insulin receptor of C2C12 mouse myoblasts, sequence (P15208 28-1372): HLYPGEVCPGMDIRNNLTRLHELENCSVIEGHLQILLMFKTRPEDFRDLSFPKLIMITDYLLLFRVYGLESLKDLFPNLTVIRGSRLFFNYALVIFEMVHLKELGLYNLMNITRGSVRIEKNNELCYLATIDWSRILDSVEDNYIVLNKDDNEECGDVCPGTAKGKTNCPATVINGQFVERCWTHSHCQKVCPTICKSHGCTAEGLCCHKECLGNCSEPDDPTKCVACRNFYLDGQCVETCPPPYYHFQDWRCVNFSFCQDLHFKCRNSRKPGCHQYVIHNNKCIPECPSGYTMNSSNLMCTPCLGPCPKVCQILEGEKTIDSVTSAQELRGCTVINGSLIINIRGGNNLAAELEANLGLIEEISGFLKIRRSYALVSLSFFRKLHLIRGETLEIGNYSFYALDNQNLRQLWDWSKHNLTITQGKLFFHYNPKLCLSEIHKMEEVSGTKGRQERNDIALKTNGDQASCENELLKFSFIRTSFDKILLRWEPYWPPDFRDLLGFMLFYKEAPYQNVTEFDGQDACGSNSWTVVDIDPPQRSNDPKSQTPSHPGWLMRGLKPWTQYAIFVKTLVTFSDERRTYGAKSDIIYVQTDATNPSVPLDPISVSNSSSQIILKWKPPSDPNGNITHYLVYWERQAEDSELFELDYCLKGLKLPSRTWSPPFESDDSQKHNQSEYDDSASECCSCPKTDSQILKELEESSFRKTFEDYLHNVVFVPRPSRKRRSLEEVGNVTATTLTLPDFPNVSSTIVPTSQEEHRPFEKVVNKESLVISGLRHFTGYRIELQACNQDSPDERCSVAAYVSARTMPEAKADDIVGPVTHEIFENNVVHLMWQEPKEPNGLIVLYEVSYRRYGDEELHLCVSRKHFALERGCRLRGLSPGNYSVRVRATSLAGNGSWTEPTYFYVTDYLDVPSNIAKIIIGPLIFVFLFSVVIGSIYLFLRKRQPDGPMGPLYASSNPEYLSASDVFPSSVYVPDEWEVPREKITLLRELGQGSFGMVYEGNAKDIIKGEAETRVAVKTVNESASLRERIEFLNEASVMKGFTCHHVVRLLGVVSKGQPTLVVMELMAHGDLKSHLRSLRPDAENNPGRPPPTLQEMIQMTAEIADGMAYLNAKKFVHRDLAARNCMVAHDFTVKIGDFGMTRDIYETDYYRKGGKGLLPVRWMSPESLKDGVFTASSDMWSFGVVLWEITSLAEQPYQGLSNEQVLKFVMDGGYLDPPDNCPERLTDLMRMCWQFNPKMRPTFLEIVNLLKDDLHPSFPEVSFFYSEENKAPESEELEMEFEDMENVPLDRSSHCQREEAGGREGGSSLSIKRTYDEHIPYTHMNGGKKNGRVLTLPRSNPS

The target in the first test is T1, IGF-IR (human, UniProt P08069 31-1367). The test can be described thus: cell-based or functional assay.
Take B1: the “EC50 for the activity in promoting MCF-7 proliferation, relative to LY3209590” value is ~2 fold of the EC50 of LY3209590.

A further test has as its target insulin receptor of C2C12 mouse myoblasts (mouse, UniProt P15208 28-1372). The test is described as follows: cell-based or functional assay.
With B2, the “AKT phosphorylation activity (EC50) in C2C12 mouse myoblasts (HTRF phospho-S473)” value (“AKT phosphorylation activity (EC50)” below) was found to be 456 nM.

Take B3: the “AKT phosphorylation activity (EC50)” value is 280 nM.

For B4, the “AKT phosphorylation activity (EC50)” value is 194 nM.

For the molecule B5, the “AKT phosphorylation activity (EC50)” value is 133 nM.

As to B6, the “AKT phosphorylation activity (EC50)” value is 28.6 nM.

On to B7, for which the “AKT phosphorylation activity (EC50)” value worked out at 565 nM.

As for B1, the “AKT phosphorylation activity (EC50)” value was determined as 90.5 nM.

B8: the “AKT phosphorylation activity (EC50)” value was found to be 490 nM.

In the case of B9, the “AKT phosphorylation activity (EC50)” value came to 544 nM.

As to B10, the “AKT phosphorylation activity (EC50)” value came out at 320 nM.

The next test deals with T1, IGF-IR. The test can be described thus: cell-based or functional assay. The source holds these as a separate data set.
As for B4, the “Activity in promoting MCF-7 proliferation (EC50), CellTiter-Glo” value came to 31.2 nM.

Consider B8, for which the “Activity in promoting MCF-7 proliferation (EC50), CellTiter-Glo” value was 280 nM.
